Source: patent publication US20260263521A1, “ANTI-CD200R1 ANTIBODY AND USE THEREOF” (AIMED BIO INC., priority 2023, published 2026)
Numbering of substitutions follows the chain as printed.

B1: P001009: phage display anti-CD200R1 clone; VH SEQ ID NO: 79, VL SEQ ID NO: 94 (antibody, V domains shown)
VH: EVQLLESGGGLVQPGGSLRLSCAASGFTFSSYDMSWVRQAPGKGLEWVSWISHGGGSIYYADSVKGRFTISRDNSKNTLYLQMNSLRAEDTAVYYCARDAPAYSAPLFDYWGQGTLVTVSS
VL: QSVLTQPPSASGTPGQRVTISCSGSSSNIGNNAVNWYQQLPGTAPKLLIYYDSNRPSGVPDRFSGSKSGTSASLAISGLRSEDEADYYCAAWDDSLSGYVFGGGTKLTVL
B2: P001009v1: P001009 variant, LC S52 and LC S94 substituted with K and R; VH SEQ ID NO: 79 (antibody, V domains shown)
VH: B1 VH
VL: B1 VL with S53K, S95R

Columns and labels:
human CD200R1 = target: T1, human CD200R1 (Homo sapiens, UniProt Q8TD46); experiment: SPR binding kinetics, human CD200R1; conditions: hCD200R1-his captured on anti-His CM5 chip, 1:1 Langmuir fit
T1 sequence (Q8TD46 25-348): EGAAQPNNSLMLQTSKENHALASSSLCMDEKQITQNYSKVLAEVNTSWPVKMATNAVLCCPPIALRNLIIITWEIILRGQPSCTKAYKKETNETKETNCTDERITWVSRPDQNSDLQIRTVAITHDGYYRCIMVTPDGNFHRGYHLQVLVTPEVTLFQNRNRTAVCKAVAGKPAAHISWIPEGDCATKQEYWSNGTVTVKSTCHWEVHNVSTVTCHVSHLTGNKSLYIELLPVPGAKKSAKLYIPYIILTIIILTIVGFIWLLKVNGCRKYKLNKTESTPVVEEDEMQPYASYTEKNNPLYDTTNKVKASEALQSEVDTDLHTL
Description: The CD200R1-specific binding ability of the antibodies (P001009 wt, P001009 v1, P001009 v2, P001009 v3, P001009 v4) selected in Example 14 was analyzed using surface plasma resonance (SPR). For the experiment, 30 μg/mL of an anti-histidine antibody was conjugated to a CM5 biacore chip via an amine bond while allowing to flow at 10 μl/min (10,000 RU). Then, 0.25 μg/mL of human or cynomolgus CD200R1 with dual His-tags was captured onto the completed chip for 60 seconds, and the binding ability of each antibody was analyzed. All experiments were performed by association of antibodies for 120 seconds and dissociation of antibodies for 600 seconds. The resulting graphs were fitted using a 1:1 Langmuir binding kinetic model (FIG. 16), and the kinetics of each antibody were calculated.

[1] = test system: Dok2 phosphorylation in Jurkat-CD200R1 cells; experiment: Dok2 protein phosphorylation, Jurkat-CD200R1 reporter cells (PathHunter); format: cell-based, human; conditions: for RLU: Jurkat-CD200R1 reporter cells, Fc capture antibody
Description: Jurkat-CD200R1 cells were maintained as shown in Example 17 and were then seeded in triplicate onto CulturePlate-384, a White Opaque 384-well microplate (PerkinElmer, #6007688) at a density of 8,000 cells/well (32 μl). AssayComplete Cell Plating 0 Reagent (DiscoverX, #93-0563ROA) was used for cell plating and antibody dilution. The seeded cells were incubated at 37° C. and 5% CO2 for 30 minutes.
During the reaction, an Fc capture antibody, anti-human IgG (Fc-specific) antibody produced in goat (Sigma Aldrich, #12136, 2.3 mg/ml), was diluted in AssayComplete media and incubated at 37° C., 5% CO2 for 30 minutes. After incubation of both the plate containing the cells and the Fc capture antibody, the cells were treated with the Fc capture antibody at a concentration of 50 μg/ml per well. The reaction was incubated for 3 hours at 37° C., 5% CO2. After cross-reactivity with the Fc capture antibody, the cells were treated with a total of three antibodies, as shown in Example 17. The cells were diluted two-fold from a maximum concentration of 50 nM to 25 nM, 12.5 nM, 6.25 nM, 3.12 nM, 1.56 nM, 0.78 nM, 0.39 nM, 0.20 nM, 0.098 nM, and 0.049 nM. After treatment, the result was reacted at room temperature for an additional 2 hours.
The PathHunter Detection kit (DiscoverX, #93-0001) was used to confirm the response of the treated antibodies to the Jurkat-CD200R1 reporter cell line. Final data were analyzed using an Infinite M200 Pro Plate reader (Tecan) to measure the luminescence from phosphorylated Dok2. […] luminescence unit (RLU) is an arbitrary unit representing luminescence, calculated by converting the signal detected by a cross-linked Fc capture antibody.

| Molecule | Ka (human CD200R1) [M⁻¹ s⁻¹] | luminescence due to phosphoDok2 [1] | RLU ([1]; antibody dose 0.05 nM) [a.u.] | RLU ([1]; antibody dose 0.10 nM) [a.u.] | RLU ([1]; antibody dose 0.20 nM) [a.u.] | RLU ([1]; antibody dose 0.39 nM) [a.u.] | RLU ([1]; antibody dose 0.78 nM) [a.u.] | RLU ([1]; antibody dose 1.56 nM) [a.u.] | RLU ([1]; antibody dose 3.13 nM) [a.u.] | RLU ([1]; antibody dose 6.25 nM) [a.u.] | RLU ([1]; antibody dose 12.5 nM) [a.u.] | RLU ([1]; antibody dose 25 nM) [a.u.] | RLU ([1]; antibody dose 50 nM) [a.u.] |
| --- | --- | --- | --- | --- | --- | --- | --- | --- | --- | --- | --- | --- | --- |
| B1 | 2.81e+06 | exhibited luminescence due to phosphoDok2 | 10432 ± 2166 | 10359 ± 1227 | 15184 ± 2826 | 10861 ± 917 | 25264 ± 1484 | 33140 ± 5780 | 41203 ± 4810 | 56115 ± 6866 | 57733 ± 6385 | 50858 ± 8029 | 37120 ± 14299 |
| B2 | 4.77e+06 | exhibited luminescence due to phosphoDok2 | 9521 ± 1128 | 10677 ± 2258 | 17866 ± 1925 | 11340 ± 509 | 28644 ± 4755 | 32863 ± 4207 | 29729 ± 3825 | 48879 ± 1315 | 45830 ± 6990 | 53185 ± 13281 | 32676 ± 5379 |
